This is an account of results in patent publication US20220168438A1 (Daiichi Sankyo, published 2022).

For test [1], the target named is T1, human CLDN9 (human, UniProt O95484 1-217).
T1 construct: Expressed on 293T cells from human CLDN9/pCMV6-Entry (OriGene); Transfection was confirmed with an anti-FLAG antibody
T1 sequence: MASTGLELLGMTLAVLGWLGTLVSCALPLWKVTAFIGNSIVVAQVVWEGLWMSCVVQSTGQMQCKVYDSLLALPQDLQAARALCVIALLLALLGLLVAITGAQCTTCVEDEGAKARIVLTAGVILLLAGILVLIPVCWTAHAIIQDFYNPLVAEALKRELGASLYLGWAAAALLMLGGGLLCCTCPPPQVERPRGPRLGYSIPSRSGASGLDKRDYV
Kind of test: flow cytometry on transiently transfected 293T cells, 1.1-30 µg/mL. Here is the method: (§1) Binding activity of the mouse anti-CLDN6 antibodies produced in Example 6 to human CLDN6 and its family molecules, CLDN3, CLDN4, and CLDN9, was evaluated by using a flow cytometry method. Human CLDN3/pCMV6-Entry, human CLDN4/pCMV6-Entry, human CLDN6/pCMV-Entry, human CLDN9/pCMV6-Entry, or pCMV6-Entry purchased from OriGene Technologies, Inc. was transiently transferred into 293T cells (Thermo Fisher Scientific, HCL4517) by using Lipofectamine 2000 (Thermo Fisher Scientific), and the cells were cultured under conditions of 37° C. and 5% CO₂ overnight, and then a cell suspension was prepared. The transfected 293T cell suspension was centrifuged to remove the supernatant, and a mouse anti-CLDN6 antibody (clone number: B1 or C7) or a mouse IgG1 control antibody (R&D Systems, Inc.) was then added and suspended to a final concentration of 30 μg/mL, 10 μg/mL, 3.3 μg/mL, or 1.1 μg/mL, and the resultant was left to stand at 4° C. for 1 hour. […] In each graph in FIG. 11, the ordinate represents FITC fluorescence intensity indicating the amount of the binding antibody and the abscissa represents antibody concentrations.

Test [2] addresses T2, human CLDN6 (human, UniProt P56747 1-220).
T2 construct: Four-transmembrane protein; It was expressed on 293T cells from human CLDN6/pCMV-Entry (OriGene) and on CHO-K1 cells by cDNA transfection; it was endogenous in the NTERA-2 lysate used for immunoprecipitation; also called claudin-6; human claudin-6
T2 sequence: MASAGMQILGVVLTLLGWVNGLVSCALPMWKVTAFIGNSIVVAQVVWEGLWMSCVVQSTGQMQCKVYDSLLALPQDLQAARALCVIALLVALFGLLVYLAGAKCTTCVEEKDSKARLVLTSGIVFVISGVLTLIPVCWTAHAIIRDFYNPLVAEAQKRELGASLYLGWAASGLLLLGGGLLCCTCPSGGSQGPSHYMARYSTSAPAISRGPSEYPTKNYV
Nature of the test: immunoprecipitation from NTERA-2 cell lysate with 218B1, SDS-PAGE, mass spectrometry of the 18 kDa band. Here is the method:
2×10⁷ NTERA-2 cells were collected and washed twice with PBS. The cells were collected by using a cell scraper, and centrifuged at 1500 rpm for 5 minutes. After the supernatant was removed, the cells were resuspended in 2 mL of the lysis buffer, and treated at 4° C. for 30 minutes. The resultant was centrifuged (13000 rpm, 20 minutes, 4° C.) to prepare a cell lysate. Protein G Sepharose/lysis buffer (50% slurry; 180 μL) was added to the cell lysate, and the resultant was rotated at 4° C. for 30 minutes and then centrifuged at 4° C. for 1 hour, and the supernatant was collected. The 218B1 antibody (about 9 μg) was added to the supernatant, and the resultant was rotated at 4° C. for 30 minutes, to which Protein G Sepharose/lysis buffer (50% slurry; 180 μL) was then added, and the resultant was rotated at 4° C. for 1 hour. The Protein G Sepharose was washed six times with the lysis buffer (1 mL), and then resuspended in 1×SDS sample buffer. After the suspension was treated at 100° C. for 5 minutes, the solution was collected as a sample for SDS-PAGE. SDS-PAGE was carried out in the same manner as in 2-2), and the electrophoresis gel was stained with CBB. The part corresponding to 18 kDa was cut out of the electrophoresis gel, and subjected to mass spectrometry.

The target of test [3] is T3, human CLDN3 (human, UniProt O15551 1-220).
T3 construct: whole, on cells
T3 sequence (looked up): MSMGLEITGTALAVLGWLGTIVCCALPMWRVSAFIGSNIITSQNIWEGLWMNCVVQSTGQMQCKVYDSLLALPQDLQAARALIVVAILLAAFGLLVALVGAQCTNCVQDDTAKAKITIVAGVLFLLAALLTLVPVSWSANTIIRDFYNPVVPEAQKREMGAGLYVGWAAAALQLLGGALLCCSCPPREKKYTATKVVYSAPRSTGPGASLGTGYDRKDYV
Kind of test: flow cytometry on transiently transfected 293T cells. The procedure:
as §1, with “hour. The cells were washed twice with Dulbecco's phosphate buffered saline (Sigma-Aldrich Co. LLC) containing 5% fetal bovine serum (Hyclone) (hereinafter, referred to as 5% FBS-containing PBS), and FLUORESCEIN-CONJUGATED GOAT IGG FRACTION TO MOUSE IGG (WHOLE MOLECULE) (MP Biomedicals, Inc.) 500-fold diluted with 5% FBS-containing PBS was then added thereto, and the cells were suspended and left to stand at 4° C. for 1 hour. After washing twice with 5% FBS-containing PBS, detection was carried out by using a flow cytometer (FC500; Beckman Coulter, Inc.). Data analysis was carried out by using FlowJo (Tree Star, Inc.). To confirm each transfection, the cells were permeabilized with 0.25% Tween 20-containing PBS, and then a mouse anti-FLAG antibody (Sigma-Aldrich Co. LLC) was used.” for “hour.”
(§2) The binding activity of the humanized anti-CLDN6 antibody produced in Example 10 to human CLDN6 and its family molecules, CLDN3, CLDN4, and CLDN9, was evaluated by using a flow cytometry method.

The target of test [4] is T4, human CLDN4 (human, UniProt O14493 1-209).
T4 construct: whole, on cells
T4 sequence (looked up): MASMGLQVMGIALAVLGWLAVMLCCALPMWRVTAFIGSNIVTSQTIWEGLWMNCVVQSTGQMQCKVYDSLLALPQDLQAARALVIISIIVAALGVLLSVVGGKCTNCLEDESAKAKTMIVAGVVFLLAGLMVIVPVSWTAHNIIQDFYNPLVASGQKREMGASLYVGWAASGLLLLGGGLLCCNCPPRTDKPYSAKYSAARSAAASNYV
The test is described as above. Here is the method:
as §1, with “hour. The cells were washed twice with Dulbecco's phosphate buffered saline (Sigma-Aldrich Co. LLC) containing 5% fetal bovine serum (Hyclone) (hereinafter, referred to as 5% FBS-containing PBS), and FLUORESCEIN-CONJUGATED GOAT IGG FRACTION TO MOUSE IGG (WHOLE MOLECULE) (MP Biomedicals, Inc.) 500-fold diluted with 5% FBS-containing PBS was then added thereto, and the cells were suspended and left to stand at 4° C. for 1 hour. After washing twice with 5% FBS-containing PBS, detection was carried out by using a flow cytometer (FC500; Beckman Coulter, Inc.). Data analysis was carried out by using FlowJo (Tree Star, Inc.). To confirm each transfection, the cells were permeabilized with 0.25% Tween 20-containing PBS, and then a mouse anti-FLAG antibody (Sigma-Aldrich Co. LLC) was used.” for “hour.”
as §2

The target of test [5] is T1, human CLDN9. Kind of test: flow cytometry on transiently transfected 293T cells, 0.8-100 nM. The procedure: (§3) The binding activity of the humanized anti-CLDN6 antibody produced in Example 10 to human CLDN6 and its family molecules, CLDN3, CLDN4, and CLDN9, was evaluated by using a flow cytometry method. Used were 293T cells transiently transfected in the same manner as in Example 7-1. To cells into which a human CLDN6 or human CLDN9 gene had been transferred, the humanized anti-CLDN6 antibody H1L1, H2L2, H1L3, H2L4, or H3L3, or a human IgG1 control antibody (Calbiochem) was added and suspended to a final concentration of 100 nM, 20 nM, 4 nM, or 0.8 nM, and the resultant was left to stand at 4° C. for 30 minutes. To cells into which a human CLDN3 or human CLDN4 gene, or an empty vector had been transferred, the humanized anti-CLDN6 antibody H1L1, H2L2, H1L3, H2L4, or H3L3 was added and suspended to a final concentration of 100 nM, and the resultant was left to stand at 4° C. for 30 minutes. The cells were washed with Dulbecco's phosphate buffered saline (Sigma-Aldrich Co. LLC) containing 5% fetal bovine serum (Hyclone) (hereinafter, referred to as 5% FBS-containing PBS), and FITC AffiniPureF (ab′)2 Fragment Goat Anti-Human IgG (H+L) (Jackson ImmunoResearch Laboratories Inc.) 150-fold diluted with 5% FBS-containing PBS was then added thereto, and the cells were suspended and left to stand at 4° C. for 30 minutes. After washing with 5% FBS-containing PBS, detection was carried out by using a flow cytometer (FC500; Beckman Coulter, Inc.). Data analysis was carried out by using FlowJo (Tree Star, Inc.), and mean fluorescence intensity (MFI) of FITC, which indicates the amount of the binding antibody, was calculated. […] In each graph in FIG. 13, the abscissa represents antibody concentrations and the ordinate represents MFI.

Test [6] addresses T2, human CLDN6. Described as above. The procedure: as §3

B1: mouse anti-CLDN6 antibody B1 (antibody, V domains shown)
VH: EVQLQQSGPELVKPGASVKISCKTSGYTFTEYTMHWVQQSHGKSLEWIGGVNPNSGDTSYNQKFKGKATLTVDKSSSTAYMELRSLTSEDSAVYYCARPGGYDVGYYAMDYWGQGTSVTVSS
VL: DIQMTQTASSLSASLGDRVTISCRASQDINNYLNWYQQKPDGTVKLLIYFTSRLHSGVPSRFSGSGSGTHYSLTITNLEQEDIATYFCQQGYPLPWTFGGGTKLEIK
notes: Mouse monoclonal antibody purified from hybridoma 218B1 culture supernatant; also called B1 antibody; 218B1
In the case of B1, the binding result in test [1] was “binds”; in test [2], “binds”; in test [3] it was “no binding (tested: 30 µg/mL (highest concentration tested))”; in test [4], “no binding (tested: 30 µg/mL (highest concentration tested))”.

B2: humanized anti-CLDN6 antibody H1L3 (antibody, human IgG1, kappa, L234A L235A, V domains shown)
VH: QVQLVQSGAEVKKPGASVKVSCKASGYTFTEYTMHWVRQAPGQGLEWMGGVNPNSGDTSYAQKFQGRVTITADTSTSTAYMELSSLRSEDTAVYYCARPGGYDVGYYAMDYWGQGTLVTVSS
VL: DIQMTQSPSSLSASVGDRVTITCRASQDINNYLNWYQQKPGGAVKLLIYFTSRLHSGVPSRFSGSGSGTDYTLTISSLQPEDFATYYCQQGYPLPWTFGGGTKVEIKR
notes: Human IgG1 LALA heavy chain and human kappa light chain; also called H1L3 antibody; hH1 + hL3
In the case of B2, the binding result in test [3] was “no binding (tested: 100 nM)”; in test [4] it was “no binding (tested: 100 nM)”; in test [5] it was “binds”; in test [6], “binds”.

B3: humanized anti-CLDN6 antibody H3L3 (antibody, human IgG1, kappa, L234A L235A, V domains shown)
VH: EVQLVQSGAEVKKPGASVKVSCKTSGYTFTEYTMHWVRQAPGQGLEWMGGVNPNSGDTSYAQKFQGRVTLTVDKSTSTAYMELSSLRSEDTAVYYCARPGGYDVGYYAMDYWGQGTLVTVSS
VL: DIQMTQSPSSLSASVGDRVTITCRASQDINNYLNWYQQKPGGAVKLLIYFTSRLHSGVPSRFSGSGSGTDYTLTISSLQPEDFATYYCQQGYPLPWTFGGGTKVEIKR
notes: Human IgG1 LALA heavy chain and human kappa light chain; also called H3L3 antibody; hH3 + hL3
For the molecule B3, the binding result in test [3] is on record as “no binding (tested: 100 nM)”; in test [4], “no binding (tested: 100 nM)”; in test [5], “binds”; in test [6], “binds”.

B4: humanized anti-CLDN6 antibody H2L4 (antibody, human IgG1, kappa, L234A L235A, V domains shown)
VH: EVQLVQSGAEVKKPGASVKVSCKTSGYTFTEYTMHWVRQAPGKSLEWMGGVNPNSGDTSYAQKFQGRVTITADTSTSTAYMELSSLRSEDTAVYYCARPGGYDVGYYAMDYWGQGTLVTVSS
VL: DIQMTQSPSSLSASVGDRVTITCRASQDINNYLNWYQQKPGGAVKLLIYFTSRLHSGVPSRFSGSGSGTDYTLTISSLQPEDFATYYCQQGNTLPWTFGGGTKVEIKR
notes: Human IgG1 LALA heavy chain and human kappa light chain; also called H2L4 antibody; hH2 + hL4
For B4, the binding result in test [3] is reported as “no binding (tested: 100 nM)”; in test [4], “no binding (tested: 100 nM)”; in test [5], “binds”; in test [6], “binds”.

B5: humanized anti-CLDN6 antibody H1L1 (antibody, human IgG1, kappa, L234A L235A, V domains shown)
VH: QVQLVQSGAEVKKPGASVKVSCKASGYTFTEYTMHWVRQAPGQGLEWMGGVNPNSGDTSYAQKFQGRVTITADTSTSTAYMELSSLRSEDTAVYYCARPGGYDVGYYAMDYWGQGTLVTVSS
VL: DIQMTQSPSSLSASVGDRVTITCRASQDINNYLNWYQQKPGKAPKLLIYFTSRLHSGVPSRFSGSGSGTDYTLTISSLQPEDFATYYCQQGYPLPWTFGQGTKVEIKR
notes: Human IgG1 LALA heavy chain and human kappa light chain; also called H1L1 antibody; hH1 + hL1
Take B5: the binding result in test [3] is reported as “no binding (tested: 100 nM)”; in test [4], “no binding (tested: 100 nM)”; in test [5] it was “binds”; in test [6] it was “binds”.

B6: humanized anti-CLDN6 antibody H2L2 (antibody, human IgG1, kappa, L234A L235A, V domains shown)
VH: EVQLVQSGAEVKKPGASVKVSCKTSGYTFTEYTMHWVRQAPGKSLEWMGGVNPNSGDTSYAQKFQGRVTITADTSTSTAYMELSSLRSEDTAVYYCARPGGYDVGYYAMDYWGQGTLVTVSS
VL: DIQMTQSPSSLSASVGDRVTITCRASQDINNYLNWYQQKPGKAVKLLIYFTSRLHSGVPSRFSGSGSGTHYTLTISSLQPEDFATYYCQQGYPLPWTFGQGTKVEIKR
notes: Human IgG1 LALA heavy chain and human kappa light chain; also called H2L2 antibody; hH2 + hL2
On to B6, for which the binding result in test [3] is “no binding (tested: 100 nM)”; in test [4], “no binding (tested: 100 nM)”; in test [5], “binds”; in test [6] it was “binds”.
